Assay results as given in patent US20230287068A1, “KERATIN BD-6, PREPARATION METHOD THEREFOR AND PHARMACEUTICAL COMPOSITION AND USE THEREOF” (INSTITUTE OF MATERIAL MEDICA, CHINESE ACADEMY OF MEDICAL …, priority 2019, published 2023).

Legend:
[1] = test system: lipopolysaccharide (LPS) induced fever model in rats; experiment: Lipopolysaccharide (LPS) induced fever model in SD rats; type: in vivo; settings: for Body temperature 2 hours after modeling / Body temperature 4 hours after modeling / Body temperature 6 hours after modeling / Body temperature 8 hours after modeling: LPS 20 µg/kg i.p., SD rats
Procedure: • Animals: 230-260 grams of male SD rats; • Drugs: lipopolysaccharide (LPS, SIGMAL-2880), aspirin (SIGMAA2093), protein BD-6; • Instruments: electronic balance (SARTORIUS BP121S type), electronic clinical thermometer (CITIZEN CT-513W type). • Experiment grouping: • Normal control group; • Model group: lipopolysaccharide fever model; • Positive control group: Aspirin 300 mg/kg group; • Protein BD-6, 10 mg/kg group, 50 mg/kg group.
Method: the method of intraperitoneal injection of Lipopolysaccharide to replicate rat fever model.
(§1) Preparation of experimental animals: After the experimental animals adapt to the experimental environment (temperature 22° C.±2° C., relative humidity 50%±2%) for 1 day. Pre-adaptation to measure rectal temperature at 8:00 and 15:00, rats were fasted and water was taken freely 12 h before experiment, and let the animal to empty its feces before measuring the rectal temperature. Apply petroleum jelly to the electronic thermometer probe before each temperature measurement. Insert the rat rectum 2 cm (can be marked at 2 cm to ensure that the depth of each insertion is consistent), and record the body temperature after the reading is stable.
Intraperitoneal injection of lipopolysaccharide to replicate rat fever model: The body temperature of the rats was measured before modeling. Qualified rats with a body temperature of 36.2-37.3° C. were selected and randomly divided into groups with 8 rats in each group. After oral administration of aspirin and different doses of protein BD-6, lipopolysaccharide (20 µg/kg, 2 ml/kg) was injected intraperitoneally immediately, and the normal control group was injected intraperitoneally with an equal volume of normal saline. The body temperatures of the rats were monitored after 2 hours for a total of 8 hours.
(§2) According to the body temperature measured at each time point on the day of the experiment, calculate the mean, standard deviation and standard error of the body temperature of each group of rats. The data of each group was compared with TTEST, and P<0.05 was considered as a significant difference.

[2] = test system: PLO-induced epilepsy in mice; experiment: Pilocarpine (PLO) induced convulsive epilepsy in mice; type: in vivo, ICR mice; set-up: mortality rate: unit not given here; settings: for Cases of deaths / Grade IV seizure rate / mortality rate / Cases of Grade IV / Grade II seizure incubation period / Grade III seizure incubation period / Grade IV seizure incubation period: PLO 225 mg/kg i.p.; for Cases of deaths / Grade IV seizure rate / mortality rate / Cases of Grade IV: 10 mice; for Cases of Grade IV: 30 min observation; for Grade II seizure incubation period / Grade III seizure incubation period / Grade IV seizure incubation period: mean±SEM; for Grade IV seizure incubation period: maximum 1800 seconds
Procedure: • Animals: male ICR mice; • Drugs: Pilocarpine HCl (PLO, pilocarpine, pilocarpine hydrochloride), Diazepam (diazepam tablets), protein BD-6. • Experiment grouping: • Model group: • Diazepam 2 mg/kg group; • Protein BD-6, 50 mg/kg group, 200 mg/kg group.
The drug was administered once in the afternoon the day before modeling, PLO-225 mg/kg (modeling agent) was injected intraperitoneally 1 hour after the test drug was administered intragastrically on the day of modeling. And positive drug can be administered once 20 minutes before modeling. Observe for 30 minutes after PLO injection.
Observation indicators: ①Seizure situation: the time of seizures from Grade II to Grade IV; ②the time to death.
Seizure grade: Refer to Racine grading standard: Grade 0: No response; Grade I: manifested as twitching of facial muscles or the corners of the mouth; Grade II: can nod; Grade III: twitching of one limb; Grade IV: rigidity or body twitching; Grade V: generalized epilepsy (generalized tonic seizures).
Count the number of Grade IV seizures and deaths in each group of mice in the experiment; Grade II, III and IV incubation period. […] Chi-square test was used for statistics of the number of cases. The mean value and standard error of the incubation period were calculated, and TTEST was used to compare the model group with other groups. P<0.05 was considered as a significant difference.

[3] = test system: yeast-induced fever model in rats; experiment: Yeast-induced fever model in SD rats; type: in vivo; settings: for Body temperature 2 hours after modeling / Body temperature 4 hours after modeling / Body temperature 6 hours after modeling / Body temperature 8 hours after modeling: 20% yeast s.c., SD rats
Procedure: • Medicines: yeast (OXOID LP0021), aspirin (SIGMA A2093), protein BD-6; • Instruments: electronic balance (SARTORIUS BP121S type), electronic clinical thermometer (CITIZEN CT-513W type). • Experiment grouping: • Normal control group; • Model group: yeast fever model; • Positive control group: Aspirin 300 mg/kg group; • Protein BD-6, 10 mg/kg group, 50 mg/kg group.
as §1
Subcutaneous injection of dry yeast to replicate rat fever model: The body temperature of the rats was measured before modeling. Qualified rats with a body temperature of 36.2-37.3° C. were selected and randomly divided into groups with 8 rats in each group. After oral administration of aspirin and different doses of protein BD-6, 20% yeast suspension (10 ml/kg) was injected subcutaneously immediately, and the normal control group was injected intraperitoneally with an equal volume of normal saline. The body temperatures of the rats were monitored after 2 hours for a total of 8 hours.
as §2

B1: BD-6: recombinant keratin with the amino acid sequence SEQ ID NO:1, expressed in E. coli, about 45 kD; protein of Example 4 (protein, listed as Bos taurus)
chain: MTTTIRHFSSGSIKGSSGLAGGSSRSCRVSGSLGGGSCRLGSAGGLGSGLGGSSYSSCYSFGSGGSYGSGGYVSGGYGGGFGGVDGLLVGGEKATMQNLNDRLASYLDKVRALEEANTELELKIRDWYQKQAPGPAPDYSSYFKTIEDLRNKIHTATVDNANLLLQIDNARLAADDFRTKFETEQALRVSVEADINGLRRVLDELTLARADLEMQIENLKEELAYLRKNHEEEMKALRGQVGGEINVEMDAAPGVDLSRILNEMRDQYEKMAEKNRKDAEDWFFSKTEELNREVATNSELVQSGKSEISELRRTLQALEIELQSQLSMKASLEGSLAETENRYCMQLSQIQGLIGSVEEQLAQLRCEMEQQNQEYKILLDVKTRLEQEIATYRRLLEGEDAHLTQYKTKEPVTTRQVRTIVEEVQDGRVISSREQVHQTSH
[1]; BD-6 10 mg/kg oral
  Body temperature 2 hours after modeling: 37.1±0.2 °C
  Body temperature 4 hours after modeling: 37.4±0.2 °C
  Body temperature 6 hours after modeling: 37.3±0.2 °C
  Body temperature 8 hours after modeling: 37.2±0.2 °C
[1]; BD-6 50 mg/kg oral
  Body temperature 2 hours after modeling: 37.2±0.1 °C
  Body temperature 4 hours after modeling: 37.5±0.2 °C
  Body temperature 6 hours after modeling: 37.4±0.2 °C
  Body temperature 8 hours after modeling: 37.4±0.2 °C
[1]; BD-6 10 and 50 mg/kg, 2 hours after modeling, P<0.05 vs model group
  Effect on body temperature (in words): can reduce the body temperature of the model rats to different degrees
[2]; BD-6 50 mg/kg intragastric
  Cases of deaths: 0
  Grade IV seizure rate: 40%
  mortality rate: 0
  Cases of Grade IV: 4
  Grade II seizure incubation period: 110±7^∗ s
  Grade III seizure incubation period: 169±9^∗ s
  Grade IV seizure incubation period: 1439±155^∗ s
[2]; BD-6 50 mg/kg, PLO model
  Incubation period of epilepsy Grade II, III and IV vs model group (in words): statistically different from the model group
[2]; BD-6 200 mg/kg intragastric
  Cases of deaths: 0
  Grade IV seizure rate: 50%
  mortality rate: 0
  Cases of Grade IV: 5
  Grade II seizure incubation period: 99 ± 6 s
  Grade III seizure incubation period: 157 ± 8 s
  Grade IV seizure incubation period: 1279 ± 181 s
[3]; BD-6 10 mg/kg oral
  Body temperature 2 hours after modeling: 37.0±0.1 °C
  Body temperature 4 hours after modeling: 37.4±0.1 °C
  Body temperature 6 hours after modeling: 37.3±0.09 °C
  Body temperature 8 hours after modeling: 37.5±0.1 °C
[3]; BD-6 50 mg/kg oral
  Body temperature 2 hours after modeling: 37.0±0.2 °C
  Body temperature 4 hours after modeling: 37.4±0.1 °C
  Body temperature 6 hours after modeling: 37.4±0.1 °C
  Body temperature 8 hours after modeling: 37.3±0.1 °C
[3]; BD-6 10 and 50 mg/kg, most time points after modeling, P<0.05 vs model group
  Effect on increase in body temperature (in words): can inhibit the increase in body temperature of model rats to varying degrees
